Data reported in the RNAGym collection of RNA variant scans (doi:10.7554/elife.80360).

B1: Hairpin Ribozyme (parent)
chain: GUCCUCUUUCACGUGCGCGUGAAAGAGAGAAGUGAACCAGAGAAACACACGUUGUGGUAUAUUACCUGGUA

Variants of: B1
Assay: self-cleavage, relative activity (ratio to wild type); higher = more cleavage; co-transcriptional

| Variant | self-cleavage |
| --- | --- |
| C12G A26U | 0.696 |
| C12G A26C | 0.555 |
| C12U G57U | 0.262 |
| C12U G57A | 0.215 |
| A11U U70A | 0.914 |
| A11U U70G | 0.656 |
| A11G G34A | 1.18 |
| G13A G17U | 0.656 |
| C12A A43U | 0.131 |
| C12A A23G | 0.677 |
| C12A A23U | 0.671 |
| C12A C50G | 0.389 |
| C12A C50A | 0.231 |
| C12A C46A | 0.202 |
| C12A C46U | 0.119 |
| C12A C37U | 0.578 |
| G13A G25C | 0.36 |
| C12A A22U | 0.737 |
| C12G A64G | 0.466 |
| C12A A30C | 0.159 |
| A11G A47C | 0.481 |
| C12A U33C | 0.166 |
| C12A U55G | 0.406 |
| A11G G51C | 0.784 |

| Variant | self-cleavage |
| --- | --- |
| C12A G17U | 0.707 |
| C12A G17C | 0.978 |
| C12A G17A | 0.746 |
| G13A C66G | 0.16 |
| A11U A47G | 0.247 |
| A11U A47C | 0.232 |
| C12A A26U | 0.522 |
| C12A A26G | 0.766 |
| C12G C66G | 0.26 |
| C12G C66U | 0.369 |
| C12G A61U | 0.217 |
| C12G A61G | 0.154 |
| A11U A26C | 0.305 |
| C12U G40C | 0.194 |
| C12U G40A | 0.358 |
| A11U A36U | 0.533 |
| A11U A36C | 0.619 |
| C12A A61C | 0.239 |
| C12A A61U | 0.169 |
| G13A C37U | 0.637 |
| G13A C37G | 0.174 |
| G13A A43C | 0.119 |
| G13A A64G | 0.526 |
| C12A C65G | 0.282 |

| Variant | self-cleavage |
| --- | --- |
| A11G G19A | 0.88 |
| A11U A28C | 0.53 |
| G13A G19A | 0.806 |
| C12U A45C | 0.201 |
| C12A G21A | 0.767 |
| A11G C48G | 0.109 |
| A11G C48A | 0.0849 |
| C12U U14A | 0.73 |
| C12U U14G | 0.602 |
| A11U G54A | 0.538 |
| A11G U63C | 0.204 |
| A11G U63G | 0.296 |
| C12U A59C | 0.149 |
| G13A C65U | 0.285 |
| C12U U58G | 0.584 |
| C12U U58A | 0.597 |
| C12G A71C | 1.3 |
| C12G A71U | 0.655 |
| C12G G25U | 0.472 |
| C12G A39C | 0.436 |
| A11U G29A | 0.137 |
| A11G U14G | 0.846 |
| A11G A35C | 0.996 |
| A11G A35U | 0.764 |

| Variant | self-cleavage |
| --- | --- |
| C12G G42C | 0.351 |
| C12U A47C | 0.221 |
| C12A G32A | 0.178 |
| C12A G32U | 0.114 |
| G13A A26U | 0.529 |
| G13A A26G | 0.778 |
| G13A A26C | 0.556 |
| A11U C18A | 0.826 |
| A11G C65U | 0.227 |
| A11G C65A | 0.759 |
| C12G A31C | 0.174 |
| C12U U70C | 0.96 |
| A11U G17A | 0.751 |
| A11U G17U | 0.562 |
| C12G A49G | 0.462 |
| A11G U55A | 0.191 |
| G13A A45C | 0.135 |
| G13A A45U | 0.0732 |
| C12A A31G | 0.468 |
| C12A A31C | 0.117 |
| A11U U62G | 0.0971 |
| G13A A22U | 0.748 |
| C12G A47G | 0.076 |
| C12G A47U | 0.183 |

| Variant | self-cleavage |
| --- | --- |
| C12U G21C | 0.651 |
| C12U G21U | 0.672 |
| A11U C65U | 0.25 |
| A11U C65G | 0.308 |
| C12G G32C | 0.0993 |
| C12G G57U | 0.322 |
| C12U A64C | 0.148 |
| A11U G32U | 0.0846 |
| A11G C12U | 0.778 |
| A11G C12A | 0.735 |
| C12U G32C | 0.134 |
| C12A U20C | 0.919 |
| C12A U20A | 0.865 |
| A11U U14A | 0.796 |
| A11G A26C | 0.624 |
| G13A A39C | 0.446 |
| G13A A39U | 0.32 |
| A11U A35U | 0.717 |
| C12A G34U | 1.31 |
| C12U A31G | 0.549 |
| A11G G32A | 0.0907 |
| A11G G32U | 0.104 |
| G13A G27U | 0.257 |
| G13A A61G | 0.196 |

| Variant | self-cleavage |
| --- | --- |
| G13A A61C | 0.223 |
| C12A G27C | 0.0872 |
| A11C U67C | 0.225 |
| C12A G40U | 0.186 |
| C12A G40C | 0.15 |
| A11U C50A | 0.153 |
| C12G C65A | 0.829 |
| A11G U70G | 0.846 |
| A11G G69A | 0.405 |
| C12U U63C | 0.0427 |
| C12U C16A | 0.735 |
| C12U C16G | 0.78 |
| G13A A44U | 0.133 |
| G13A A44C | 0.195 |
| C12U A22C | 0.831 |
| C12A A45U | 0.132 |
| C12A A45G | 0.177 |
| A11U C12U | 0.694 |
| A11U C12A | 0.763 |
| A11U C48U | 0.154 |
| A11U C48A | 0.215 |
| C12A C38G | 0.187 |
| C12A C38U | 0.482 |
| C12U G54C | 0.47 |

| Variant | self-cleavage |
| --- | --- |
| C12G C50U | 0.291 |
| A11U G27U | 0.394 |
| C12G A22U | 0.686 |
| C12G A22G | 0.739 |
| A11U G57U | 0.337 |
| A11U G57A | 0.15 |
| A11G A59U | 0.199 |
| A11G A44C | 0.203 |
| A11G A44G | 0.0822 |
| A11U A61C | 0.137 |
| A11G A45U | 0.159 |
| C12A A35C | 0.978 |
| C12A A35G | 0.914 |
| A11G G68C | 0.221 |
| A11G G68U | 0.143 |
| C12G U53G | 0.562 |
| C12G U53C | 0.919 |
| C12G U53A | 0.911 |
| A11G U62G | 0.332 |
| A11G U62C | 0.146 |
| G13A A36C | 0.533 |
| G13A A36G | 0.873 |
| C12G G68U | 0.193 |
